Test results from the supplement of paper PMC7125110.
± gives the standard error. Fewer inactive variants are shown than the library holds.

B1: glmS ribozyme (parent)
chain: AUAAAAGCGCCAGAACUACAGAAAUGUAGUUGACGAGGAGGAGGUUUAUCGAAUUUUCGGCGGAUGCCUCCAAA

Experiments:
Conditions in all cases: with glucosamine-6-phosphate
[1] = variants of: B1; test: self-cleavage kobs at 40 uM GlcN6P; higher = faster cleavage; RNA array
Summary of the method: (§1)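 Weighted Michaelis–Menten fits across concentrations supplied kcat and KM, based on kobs from one- or two-exponential decay fits to normalised per-tile medians. The data came from barcoded ribozyme variants transcribed in situ by E. coli RNA polymerase on sequenced MiSeq chips and tracked at 37 °C by a hybridised Cy3 probe. Glucosamine-6-phosphate (40 μM to 10 mM) in HEPES/KCl/Mg(OAc)2 buffer was flowed in.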

[2] = variants of: B1; test: self-cleavage kobs at 160 uM GlcN6P; higher = faster cleavage; RNA array
Summary of the method: as §1

[3] = variants of: B1; test: self-cleavage kobs at 640 uM GlcN6P; higher = faster cleavage; RNA array
Summary of the method: as §1

[4] = variants of: B1; test: self-cleavage kobs at 2500 uM GlcN6P; higher = faster cleavage; RNA array
Summary of the method: as §1

[5] = variants of: B1; test: self-cleavage kobs at 10000 uM GlcN6P; higher = faster cleavage; RNA array
Summary of the method: as §1

U47G G63U
self-cleavage kobs at 40 uM GlcN6P [1]: < 1e-05 s⁻¹
self-cleavage kobs at 160 uM GlcN6P [2]: < 1e-05 s⁻¹
self-cleavage kobs at 640 uM GlcN6P [3]: < 1e-05 s⁻¹
self-cleavage kobs at 2500 uM GlcN6P [4]: < 1e-05 s⁻¹
self-cleavage kobs at 10000 uM GlcN6P [5]: < 1e-05 s⁻¹

G44U U49C U57A
self-cleavage kobs at 40 uM GlcN6P [1]: < 1e-05 s⁻¹
self-cleavage kobs at 640 uM GlcN6P [3]: < 1e-05 s⁻¹

U46C U57A
self-cleavage kobs at 40 uM GlcN6P [1]: < 1e-05 s⁻¹
self-cleavage kobs at 10000 uM GlcN6P [5]: 5.47e-05 ± 1.8e-05 s⁻¹

U45C A64G
self-cleavage kobs at 40 uM GlcN6P [1]: 0.000103 ± 1.8e-05 s⁻¹
self-cleavage kobs at 2500 uM GlcN6P [4]: 0.00182 ± 0.00053 s⁻¹
self-cleavage kobs at 10000 uM GlcN6P [5]: 0.00342 ± 0.00055 s⁻¹

G41U G44A
self-cleavage kobs at 40 uM GlcN6P [1]: < 1e-05 s⁻¹
self-cleavage kobs at 160 uM GlcN6P [2]: < 1e-05 s⁻¹
self-cleavage kobs at 640 uM GlcN6P [3]: < 1e-05 s⁻¹
self-cleavage kobs at 2500 uM GlcN6P [4]: < 1e-05 s⁻¹
self-cleavage kobs at 10000 uM GlcN6P [5]: < 1e-05 s⁻¹

U45A A52U
self-cleavage kobs at 40 uM GlcN6P [1]: < 1e-05 s⁻¹
self-cleavage kobs at 640 uM GlcN6P [3]: 0.000476 ± 0.00013 s⁻¹
self-cleavage kobs at 10000 uM GlcN6P [5]: 0.001 ± 0.00019 s⁻¹

A42G U55A
self-cleavage kobs at 40 uM GlcN6P [1]: 0.00136 ± 0.00015 s⁻¹
self-cleavage kobs at 160 uM GlcN6P [2]: 0.00202 ± 0.00052 s⁻¹
self-cleavage kobs at 640 uM GlcN6P [3]: 0.0283 ± 0.0091 s⁻¹
self-cleavage kobs at 2500 uM GlcN6P [4]: 0.0289 ± 0.0077 s⁻¹
self-cleavage kobs at 10000 uM GlcN6P [5]: 0.0423 ± 0.013 s⁻¹

G44A U56C C61U
self-cleavage kobs at 40 uM GlcN6P [1]: < 1e-05 s⁻¹
self-cleavage kobs at 640 uM GlcN6P [3]: < 1e-05 s⁻¹
self-cleavage kobs at 2500 uM GlcN6P [4]: < 1e-05 s⁻¹
self-cleavage kobs at 10000 uM GlcN6P [5]: < 1e-05 s⁻¹

A42C U57A
self-cleavage kobs at 40 uM GlcN6P [1]: < 1e-05 s⁻¹
self-cleavage kobs at 640 uM GlcN6P [3]: < 1e-05 s⁻¹
self-cleavage kobs at 2500 uM GlcN6P [4]: < 1e-05 s⁻¹
self-cleavage kobs at 10000 uM GlcN6P [5]: < 1e-05 s⁻¹

A42G G43C U45G A64U
self-cleavage kobs at 40 uM GlcN6P [1]: < 1e-05 s⁻¹
self-cleavage kobs at 10000 uM GlcN6P [5]: < 1e-05 s⁻¹

U45C C58G
self-cleavage kobs at 40 uM GlcN6P [1]: < 1e-05 s⁻¹
self-cleavage kobs at 160 uM GlcN6P [2]: < 1e-05 s⁻¹
self-cleavage kobs at 640 uM GlcN6P [3]: < 1e-05 s⁻¹

U45C C58U
self-cleavage kobs at 40 uM GlcN6P [1]: < 1e-05 s⁻¹
self-cleavage kobs at 160 uM GlcN6P [2]: < 1e-05 s⁻¹
self-cleavage kobs at 640 uM GlcN6P [3]: < 1e-05 s⁻¹
self-cleavage kobs at 2500 uM GlcN6P [4]: < 1e-05 s⁻¹

U47C U49A U54G C68A
self-cleavage kobs at 40 uM GlcN6P [1]: < 1e-05 s⁻¹
self-cleavage kobs at 10000 uM GlcN6P [5]: < 1e-05 s⁻¹

U47C G62A
self-cleavage kobs at 40 uM GlcN6P [1]: < 1e-05 s⁻¹
self-cleavage kobs at 10000 uM GlcN6P [5]: < 1e-05 s⁻¹

A42G U47G G63U
self-cleavage kobs at 40 uM GlcN6P [1]: < 1e-05 s⁻¹

G44A G59C C71U
self-cleavage kobs at 40 uM GlcN6P [1]: < 1e-05 s⁻¹
self-cleavage kobs at 10000 uM GlcN6P [5]: < 1e-05 s⁻¹

G41U G44U A64U
self-cleavage kobs at 40 uM GlcN6P [1]: < 1e-05 s⁻¹
self-cleavage kobs at 10000 uM GlcN6P [5]: < 1e-05 s⁻¹

G44C U45A C71U
self-cleavage kobs at 40 uM GlcN6P [1]: < 1e-05 s⁻¹

A42C U45A
self-cleavage kobs at 40 uM GlcN6P [1]: < 1e-05 s⁻¹
self-cleavage kobs at 640 uM GlcN6P [3]: < 1e-05 s⁻¹
self-cleavage kobs at 2500 uM GlcN6P [4]: < 1e-05 s⁻¹

U46C A64C
self-cleavage kobs at 40 uM GlcN6P [1]: < 1e-05 s⁻¹
self-cleavage kobs at 2500 uM GlcN6P [4]: < 1e-05 s⁻¹
self-cleavage kobs at 10000 uM GlcN6P [5]: < 1e-05 s⁻¹

G43A G44U
self-cleavage kobs at 40 uM GlcN6P [1]: < 1e-05 s⁻¹
self-cleavage kobs at 160 uM GlcN6P [2]: < 1e-05 s⁻¹
self-cleavage kobs at 640 uM GlcN6P [3]: < 1e-05 s⁻¹
self-cleavage kobs at 10000 uM GlcN6P [5]: < 1e-05 s⁻¹

U45A G66A
self-cleavage kobs at 40 uM GlcN6P [1]: 0.000969 ± 0.00013 s⁻¹
self-cleavage kobs at 160 uM GlcN6P [2]: 0.00224 ± 0.00044 s⁻¹
self-cleavage kobs at 640 uM GlcN6P [3]: 0.00848 ± 0.0021 s⁻¹
self-cleavage kobs at 2500 uM GlcN6P [4]: 0.00884 ± 0.002 s⁻¹
self-cleavage kobs at 10000 uM GlcN6P [5]: 0.0359 ± 0.011 s⁻¹
